tested on: MCF10A; experiment: percent viability (nuclei count relative to siNT); higher = more viable cells; conditions: 20 nM; 72 h
Method: (§1)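 After 72 h, cells were fixed and stained with Hoechst and anti-fibrillarin, and nucleoli per nucleus were counted with CellProfiler. Values are plate-adjusted percent effect for the one-nucleolus and 5+ nucleoli phenotypes, normalised to siNT (0%) and to the positive controls siNOL11 or siKIF11 (100%), as the mean of biological triplicates. Percent viability is the nuclei count relative to siNT.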

Going from GUGAGGGACUGGGAUUUGUGG [hsa-miR-6834-5p] to “CUCUAGAGGGAAGCGCUUUCUG [hsa-miR-518e-5p]”, the percent viability falls from 81.4% to 26.7%.

Compared with GCUGACUCCUAGUCCAGGGCUC [hsa-miR-345-5p], “UGGUCUGUUCAUUCUCUCUUUUUGGCC [hsa-miR-7107-3p]” is lower in percent viability: 100% for the first, 15% for the second.

First: ACACUUGUUGGGAUGACCUGC [hsa-miR-6500-3p]
Second: AAAGCUGGGUUGAGAAGG [hsa-miR-320e]
The percent viability of the first is lower: 23.8% for the first, 28.6% for the second.

Compared with “UGCUCAGGUUGCACAGCUGGGA [hsa-miR-3934-3p]”, UCUAUACAGACCCUGGCUUUUC [hsa-miR-1284] is higher in percent viability: 52.8% for the first, 75.8% for the second.

Compared with ACCCUAUCAAUAUUGUCUCUGC [hsa-miR-454-5p], CUGACUGUUGCCGUCCUCCAG [hsa-miR-943] is lower in percent viability: 81.2% for the first, 62.9% for the second.

First: CUGGGAGAGGGUUGUUUACUCC [hsa-miR-30c-1-3p]
Second: AUAGUGGUUGUGAAUUUACCUU [hsa-miR-4460]
The percent viability of the first is lower: 13.1% for the first, 33.9% for the second.

Compared with AUGUGAUUGACGGCUGACUCCA [hsa-miR-8070], “UGAAGCUCUGACAUUCCUGCAG [hsa-miR-6806-3p]” is higher in percent viability: 23% for the first, 26.6% for the second.

Compared with UGUCCUCUGUUCCUCAG [hsa-miR-6852-3p], UUAGGGCCCUGGCUCCAUCUCC [hsa-miR-1296] is higher in percent viability: 17.2% for the first, 39.5% for the second.

Compared with UGACAACUAUGGAUGAGCUCU [hsa-miR-549a], UGUCACUCGGCUCGGCCCACUAC [hsa-miR-668] is lower in percent viability: 77.8% for the first, 60.6% for the second.

Going from “GGGCCUCUCUUGUCAUCCUGCAG [hsa-miR-6744-3p]” to “CCAAUAUUACUGUGCUGCUUUA [hsa-miR-16-2-3p]”, the percent viability rises from 81.6% to 121%.

Going from ACAGCCCAGCAGUUAUCACGGG [hsa-miR-5685] to UCUGAGGCCUGCCUCUCCCCA [hsa-miR-4649-3p], the percent viability falls from 57.8% to 54.4%.

Going from GAAGUGUGCCGUGGUGUGUCU [hsa-miR-595] to CUAUACAACCUACUGCCUUCCC [hsa-let-7b-3p], the percent viability rises from 30.6% to 32.4%.

Compared with “UGGGGUAAGGAUAGGAGGGUCA [hsa-miR-6881-5p]”, AUCGGGAAUGUCGUGUCCGCCC [hsa-miR-425-3p] is higher in percent viability: 24.8% for the first, 109% for the second.

Going from “ACUGGGAUGUCACUGAAUAUGGU [hsa-miR-6506-5p]” to GAUGAGCUCAUUGUAAUAUGAG [hsa-miR-556-5p], the percent viability rises from 28.3% to 111%.

Compared with UCACAAGGUAUUGACUGGCGUA [hsa-miR-4457], “UCUCACUGUAGCCUCGAACCCC [hsa-miR-1304-3p]” is lower in percent viability: 47.9% for the first, 44.7% for the second.

Going from “CUGCAGACUCGACCUCCCAGGC [hsa-miR-1273h-3p]” to CAGGAUGUGGUCAAGUGUUGUU [hsa-miR-1265], the percent viability rises from 41.7% to 123%.

First: UUCUCCAAAAGGGAGCACUUUC [hsa-miR-519e-5p]
Second: CGUGGAUUGUCUGGAUGCAU [hsa-miR-8056]
The percent viability of the first is lower: 39.5% for the first, 41.8% for the second.

Going from “GUGAGUGGGAGCCGGUGGGGCUG [hsa-miR-4758-5p]” to “UUGCUCUGCUCCCCCGCCCCCAG [hsa-miR-6805-3p]”, the percent viability falls from 107% to 36.2%.

First: UCACUCCUCUCCUCCCGUCUU [hsa-miR-483-3p]
Second: CUGAACUAGAGAUUGGGCCCA [hsa-miR-7158-3p]
The percent viability of the first is higher: 45.3% for the first, 32.7% for the second.

First: AGGAAGCCCUGGAGGGGCUGGAG [hsa-miR-671-5p]
Second: UACUCAGGAGAGUGGCAAUCAC [hsa-miR-510]
The percent viability of the first is higher: 45.3% for the first, 20.5% for the second.

Going from CUAGUGCUCUCCGUUACAAGUA [hsa-miR-4473] to CAUUAUUACUUUUGGUACGCG [hsa-miR-126-5p], the percent viability rises from 37.8% to 88.9%.

Compared with UGAUUGGUACGUCUGUGGGUAG [hsa-miR-509-3p], UGCUAUGCCAACAUAUUGCCAU [hsa-miR-31-3p] is lower in percent viability: 37.8% for the first, 34.2% for the second.

Going from UGGGGGAGUGCAGUGAUUGUGG [hsa-miR-5698] to “UGGUCAGAGGCAGCAGGAAAUGA [hsa-miR-6801-5p]”, the percent viability falls from 161% to 54.5%.

Going from UGAGUGUUGUCUACGAGGGCA [hsa-miR-3659] to AGGGAGGGACGGGGGCUGUGC [hsa-miR-149-3p], the percent viability falls from 59% to 15.1%.

First: GCCUAUCACAUAUCUGCCUGU [hsa-miR-3927-5p]
Second: UGAGAAGGCACAGCUUGCACGUGA [hsa-miR-6770-5p]
The percent viability of the first is higher: 73.9% for the first, 36.9% for the second.

Going from UGUGACUGCAUUAUGAAAAUUCU [hsa-miR-3118] to “AGAAUUGUGGCUGGACAUCUGU [hsa-miR-219-2-3p]”, the percent viability rises from 26.7% to 33.5%.

Compared with AGAGUCUUGUGAUGUCUUGC [hsa-miR-924], CCAGACAGAAUUCUAUGCACUUUC [hsa-miR-1324] is higher in percent viability: 42.5% for the first, 120% for the second.

First: UGUGUACACACGUGCCAGGCGCU [hsa-miR-3177-5p]
Second: CCCAUGCCUCCUGCCGCGGUC [hsa-miR-6872-3p]
The percent viability of the first is higher: 131% for the first, 48% for the second.

Compared with GAGGGUUGGGUGGAGGCUCUCC [hsa-miR-296-3p], GCUUGUCGCUGCGGUGUUGCU [hsa-miR-3655] is higher in percent viability: 57.1% for the first, 65.9% for the second.

GGGUGAGGGCAGGUGGUU [hsa-miR-4710] was tested, and the percent viability was 19.2%.

tested on: MCF10A; experiment: 5+ nucleoli phenotype percent effect (relative to siNT 0% and siKIF11 100%); higher = more cells with five or more nucleoli; conditions: 20 nM; 72 h
Method: as §1

Going from GUGAGGGACUGGGAUUUGUGG [hsa-miR-6834-5p] to “CUCUAGAGGGAAGCGCUUUCUG [hsa-miR-518e-5p]”, the “5+ nucleoli phenotype percent effect” value falls from 23.5% to 3.26%.

Compared with GCUGACUCCUAGUCCAGGGCUC [hsa-miR-345-5p], “UGGUCUGUUCAUUCUCUCUUUUUGGCC [hsa-miR-7107-3p]” is lower in “5+ nucleoli phenotype percent effect” value: 31.9% for the first, 0.728% for the second.

Going from ACACUUGUUGGGAUGACCUGC [hsa-miR-6500-3p] to AAAGCUGGGUUGAGAAGG [hsa-miR-320e], the “5+ nucleoli phenotype percent effect” value rises from -37.8% to 2.27%.

Going from “UGCUCAGGUUGCACAGCUGGGA [hsa-miR-3934-3p]” to UCUAUACAGACCCUGGCUUUUC [hsa-miR-1284], the “5+ nucleoli phenotype percent effect” value rises from -20.7% to 31.3%.

Compared with ACCCUAUCAAUAUUGUCUCUGC [hsa-miR-454-5p], CUGACUGUUGCCGUCCUCCAG [hsa-miR-943] is lower in “5+ nucleoli phenotype percent effect” value: 45.6% for the first, -13.7% for the second.

Compared with “CUGGGAGAGGGUUGUUUACUCC [hsa-miR-30c-1-3p]”, AUAGUGGUUGUGAAUUUACCUU [hsa-miR-4460] is lower in “5+ nucleoli phenotype percent effect” value: -21.9% for the first, -22.1% for the second.

First: AUGUGAUUGACGGCUGACUCCA [hsa-miR-8070]
Second: UGAAGCUCUGACAUUCCUGCAG [hsa-miR-6806-3p]
The “5+ nucleoli phenotype percent effect” value of the first is lower: -27.8% for the first, -18.7% for the second.

Going from UGUCCUCUGUUCCUCAG [hsa-miR-6852-3p] to UUAGGGCCCUGGCUCCAUCUCC [hsa-miR-1296], the “5+ nucleoli phenotype percent effect” value rises from 9.01% to 13.2%.

First: UGACAACUAUGGAUGAGCUCU [hsa-miR-549a]
Second: UGUCACUCGGCUCGGCCCACUAC [hsa-miR-668]
The “5+ nucleoli phenotype percent effect” value of the first is higher: 15.5% for the first, -8.26% for the second.

Going from “GGGCCUCUCUUGUCAUCCUGCAG [hsa-miR-6744-3p]” to “CCAAUAUUACUGUGCUGCUUUA [hsa-miR-16-2-3p]”, the “5+ nucleoli phenotype percent effect” value falls from 49.2% to 40.6%.

First: ACAGCCCAGCAGUUAUCACGGG [hsa-miR-5685]
Second: UCUGAGGCCUGCCUCUCCCCA [hsa-miR-4649-3p]
The “5+ nucleoli phenotype percent effect” value of the first is higher: -0.657% for the first, -6.15% for the second.

First: GAAGUGUGCCGUGGUGUGUCU [hsa-miR-595]
Second: CUAUACAACCUACUGCCUUCCC [hsa-let-7b-3p]
The “5+ nucleoli phenotype percent effect” value of the first is lower: -22% for the first, -18.8% for the second.

Compared with “UGGGGUAAGGAUAGGAGGGUCA [hsa-miR-6881-5p]”, AUCGGGAAUGUCGUGUCCGCCC [hsa-miR-425-3p] is higher in “5+ nucleoli phenotype percent effect” value: -3.46% for the first, -1.09% for the second.

Compared with “ACUGGGAUGUCACUGAAUAUGGU [hsa-miR-6506-5p]”, GAUGAGCUCAUUGUAAUAUGAG [hsa-miR-556-5p] is higher in “5+ nucleoli phenotype percent effect” value: -3.32% for the first, 8.79% for the second.

UCACAAGGUAUUGACUGGCGUA [hsa-miR-4457] was tested, and the “5+ nucleoli phenotype percent effect” value was -15.7%.
